Laboratory results reported in publication PMC7925596, “Exploring targeting peptide-shell interactions in encapsulin nanocompartments” (Scientific Reports, 2021).

B1: Thermotoga maritima encapsulin (T1 encapsulin shell) (natural protein, T. maritima)
chain: MEFLKRSFAPLTEKQWQEIDNRAREIFKTQLYGRKFVDVEGPYGWEYAAHPLGEVEVLSDENEVVKWGLRKSLPLIELRATFTLDLWELDNLERGKPNVDLSSLEETVRKVAEFEDEVIFRGCEKSGVKGLLSFEERKIECGSTPKDLLEAIVRALSIFSKDGIEGPYTLVINTDRWINFLKEEAGHYPLEKRVEECLRGGKIITTPRIEDALVVSERGGDFKLILGQDLSIGYEDREKDAVRLFITETFTFQVVNPEALILLKF
notes: encapsulin shell protein of Thermotoga maritima, T1 icosahedral shell, 24 nm, 60 subunits; Cloned into pBAD/HisA cut with NcoI and XhoI; also called T. maritima encapsulin protein; source: E. coli One shot BL21 (DE3) Star, pBAD/HisA, L-arabinose induced; purified as assembled particles (PEG-8000 precipitation, SEC, anion exchange); copies: 60

Key:
[1] = molecular target: B1; test: bulk fluorescence of purified encapsulin particles (loading percentage); particles loaded in E. coli and purified; 15 ug/mL in 20 mM Tris, 100 mM NaCl, pH 8 with 1 mg/mL BSA; plate reader Ex 500 nm, Em 530 nm, 20 C; loading = percentage of occupied TP binding sites (T1: 60, T3: 180), mNeonGreen standard curve; triplicates; details: partners not purified
[2] = molecular target: T1, Myxococcus xanthus encapsulin (T3 encapsulin shell) (M. xanthus, UniProt Q1D6H4 1-287); test: as above; details: partners not purified
T1 construct: encapsulin shell protein of Myxococcus xanthus, T3 icosahedral shell, 32 nm, 180 subunits; Cloned into pBAD/HisA cut with NcoI and XhoI; also called M. xanthus encapsulin protein; source: E. coli One shot BL21 (DE3) Star, pBAD/HisA, L-arabinose induced; purified as assembled particles (PEG-8000 precipitation, SEC, anion exchange); copies: 180
T1 sequence (Q1D6H4 whole entry): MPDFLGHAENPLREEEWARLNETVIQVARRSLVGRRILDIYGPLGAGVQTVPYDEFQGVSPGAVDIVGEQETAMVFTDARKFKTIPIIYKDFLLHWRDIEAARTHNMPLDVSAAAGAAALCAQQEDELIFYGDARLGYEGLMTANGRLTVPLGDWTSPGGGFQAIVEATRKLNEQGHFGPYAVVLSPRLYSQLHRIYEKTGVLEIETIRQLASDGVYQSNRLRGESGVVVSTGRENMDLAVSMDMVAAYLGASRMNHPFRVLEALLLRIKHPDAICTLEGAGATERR

[3] = molecular target: the molecule itself; test: negative stain transmission electron microscopy; purified particles, 1 mg/mL in low salt buffer, uranyl formate stain, 80 keV

Binder | cargo proteins per shell [1] [cargo proteins per shell] | further results
NTGGDLGIRK (native targeting peptide of the T. maritima (T1) encapsulin system, from the C-terminus of the native cargo protein; The targeting peptide is at the C-terminus of mNeonGreen; also called mNeonGreenTP (native T1 TP); native T1 TP; source: E. coli One shot BL21 (DE3) Star, pCDF-Duet1, IPTG induced before encapsulin; co-purified with encapsulin particles; not shown: mNeonGreen, N-terminal, kept) [mNeonGreen C-terminally fused to the native T1 targeting peptide] | ~2 | –
DGSLGIGSLKG (consensus targeting peptide found in T1 encapsulin systems; The targeting peptide is at the C-terminus of mNeonGreen; also called mNeonGreenTP (T1 consensus TP); T1 consensus TP; source: E. coli One shot BL21 (DE3) Star, pCDF-Duet1, IPTG induced before encapsulin; co-purified with encapsulin particles; not shown: mNeonGreen, N-terminal, kept) [mNeonGreen C-terminally fused to the T1 consensus targeting peptide] | ~2 | –
PLTVGSLRRGG (native 11-residue targeting peptide of the M. xanthus (T3) encapsulin system; The targeting peptide is at the C-terminus of mNeonGreen; also called mNeonGreenTP (native T3 TP); native T3 TP; source: E. coli One shot BL21 (DE3) Star, pCDF-Duet1, IPTG induced before encapsulin; co-purified with encapsulin particles; not shown: mNeonGreen, N-terminal, kept) [mNeonGreen C-terminally fused to the native T3 targeting peptide] | – | cargo proteins per shell [2]: ~45 cargo proteins per shell
B1 | – | binding result [3]: binds
